Measurements taken from patent US20200087405A1 (UNIVERSITY OF SASKATCHEWAN, published 2020).

What was measured:
[1] = target: T1, Fc-tagged extracellular domain (ECD) of the recombinant human EGFR (rhEGFR) (human, UniProt P00533 25-645); assay: apparent affinity by multi-point competitive ELISA using purified EGFR, Fab-phage; Fab-phage, first account of the DL06 selection
T1 construct: extracellular domain; also called rhEGFR-ECD; rhEGFR-ECD-Fc; not shown: Fc tag of the bought protein (R&D 344-ER)

[2] = target: T2, cell-surface EGFR (endogenous on A431, MDA-MB-231 and other cancer cell lines); pBABE-EGFR transfected 293T … (UniProt P00533 25-1210, limits assumed); assay: flow cytometry on A431 cells, 800CW-labelled fragment
T2 construct: whole, on cells; Untagged EGFR on cells; also called endogenous cell-surface EGFR; EGFR1

[3] = target: T3, Fc-tagged ECD of ErbB2 (ErbB family member, R&D 1129-ER) (human, UniProt P04626 23-652); assay: single point Fab-phage ELISA on immobilized protein
T3 construct: extracellular domain; not shown: Fc tag of the bought protein

[4] = target: T4, Fc-tagged ECD of ErbB4 (ErbB family member, R&D 1131-ER) (human, UniProt Q15303 26-651); assay: as above
T4 construct: extracellular domain; not shown: Fc tag of the bought protein
T4 sequence (looked up): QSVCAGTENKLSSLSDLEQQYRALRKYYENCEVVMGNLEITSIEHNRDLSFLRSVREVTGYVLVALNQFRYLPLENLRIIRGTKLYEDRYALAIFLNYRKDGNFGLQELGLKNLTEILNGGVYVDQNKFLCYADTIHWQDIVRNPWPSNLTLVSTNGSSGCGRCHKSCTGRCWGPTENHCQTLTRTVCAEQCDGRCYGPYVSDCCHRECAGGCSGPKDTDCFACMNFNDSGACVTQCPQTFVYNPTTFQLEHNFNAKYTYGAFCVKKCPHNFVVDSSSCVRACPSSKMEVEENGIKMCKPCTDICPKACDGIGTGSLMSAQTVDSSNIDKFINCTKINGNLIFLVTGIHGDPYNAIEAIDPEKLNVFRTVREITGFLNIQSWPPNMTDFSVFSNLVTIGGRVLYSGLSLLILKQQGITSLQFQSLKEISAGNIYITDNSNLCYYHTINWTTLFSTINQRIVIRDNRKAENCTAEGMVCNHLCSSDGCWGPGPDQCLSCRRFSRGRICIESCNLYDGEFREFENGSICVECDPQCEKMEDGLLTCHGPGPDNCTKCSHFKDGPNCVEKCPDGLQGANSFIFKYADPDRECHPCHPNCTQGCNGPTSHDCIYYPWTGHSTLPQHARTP

[5] = target: T5, Fc-tagged ECD of ErbB3 (R&D 348-RB) (human, UniProt P21860 20-643); assay: as above
T5 construct: extracellular domain; also called ErbB family member; not shown: Fc tag of the bought protein

B1: Fab DL06 (Fab)
heavy: EVQLVESGGGLVQPGGSLRLSCAASGFNISSSSIHWVRQAPGKGLEWVAYISSYYSSTYYADSVKGRFTISADTSKNTAYLQMNSLRAEDTAVYYCARTYCPPLMLYNPTTYQMDVNPEGKYSFGATCGWAMDYWGQGTLVTVSSASTKGPSVFPLAPSSKSTSGGTAALGCLVKDYFPEPVTVSWNSGALTSGVHTFPAVLQSSGLYSLSSVVTVPSSSLGTQTYICNVNHKPSNTKVDKKVEPKSCDKTHT
light: DIQMTQSPSSLSASVGDRVTITCRASQSVSSAVAWYQQKPGKAPKLLIYSASSLYSGVPSRFSGSRSGTDFTLTISSLQPEDFATYYCQQWSYYPITFGQGTKVEIKRTVAAPSVFIFPPSDSQLKSGTASVVCLLNNFYPREAKVQWKVDNALQSGNSQESVTEQDSKDSTYSLSSTLTLSKADYEKHKVYACEVTHQGLSSPVTKSFNRGECGGSDYKDDDDK
notes: Fab with the EGFR dimerization loop grafted in CDR-H3; the light chain entry ends in a FLAG tag; also called DL06 Fab; parent clone DL06
With B1 the Kd [1] was greater than 100 nM, the Kd [2] was greater than 1000 nM and the binding result [3] was “no binding”. B1: no binding [4]; binds [5].
